The results in this text go back to patent US20030235900A1.

This experiment deals with Strep-Tactin Macroprep resin (Cat. No. 2-1505-010; IBA GmbH). As to the kind of experiment: batch binding to Strep-Tactin Macroprep resin, 1 hour in cold room; binding followed by MTSP10 activity left in the supernatant.

B1: MTSP10-ST2 C122S (protease domain of human MTSP10, C122S mutant, with C-terminal Strep-tag II, expressed in Pichia pastoris) (enzyme)
chain: RIIGGTDTLEGGWPWQVSLHFVGSAYCGASVISREWLLSAAHCFHGNRLSDPTPWTAHLGMYVQGNAKFVSPVRRIVVHEYYNSQTFDYDIALLQLSIAWPETLKQLIQPISIPPTGQRVRSGEKCWVTGWGRRHEADNKGSLVLQQAEVELIDQTLCVSTYGIITSRMLCAGIMSGKRDACKGDSGGPLSCRRKSDGKWILTGIVSWGHGCGRPNFPGVYTRVSNFVPWIGGWSHPQFEK
Molecule B1 came in with a percent of activity retained by the resin of 50 to 70%.
